# Molecular target: NarXS1 (NarX periplasmic sensor domain, residues 38 - 151) (Escherichia coli K-12) (UniProt P0AFA2)
# Assay: crystal structure
substance,measurement,value
"NarXS1 (NarX periplasmic sensor domain, residues 38 - 151) (from UniProt P0AFA2 38-151) (domain or fragment)",stoichiometry N,2

# Source: article PMC3749045
